From the supplement of paper PMC9170038

Test system: K4 kissing-loop RNA reporter
Test: apparent KD of K4 kissing-loop reporter; higher = weaker reporter binding
Conditions: Eterna round: R107
Procedure: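 RNA-MaP round R107: designed RNA switches with theophylline, tryptophan, arginine or FMN aptamers are transcribed on-chip within common flanks. They are titrated with a labelled K4 kissing-loop RNA reporter in RNA-MaP buffer (100 mM Tris pH 7.5, 80 mM KCl, 4 mM MgCl2), without ligand or with the indicated ligand. Median apparent KD per design.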

[1] = input ligand: theophylline 20 uM
[2] = input ligand: tryptophan 2.4 mM
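Further: bound reporter read as fluorescence of individual clusters on recovered sequencing chips by microscopy, with normalized cluster intensities fitted with a binding model.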

Row | Sequence | apparent KD of K4 kissing-loop reporter (input ligand: FMN 200 uM) [nM] | apparent KD of K4 kissing-loop reporter (input ligand: arginine 13.2 mM) [nM] | apparent KD of K4 kissing-loop reporter (input ligand: none) [nM] | apparent KD of K4 kissing-loop reporter [1] [nM] | apparent KD of K4 kissing-loop reporter [2] [nM]
1 | GGAUAGGACAGAGGAUAUGGUAGUGAUGUUACCACGAGACAAAGUCUCGAAAAGCUACAAAGUAGCCCAGAAGGCUGUCCUAUCG [FmnBX 25 #SwitchBubble #StaticStem #Palindromic] | 402 | 116 | 130 | 114 | 127
2 | UUGUAAAAGUCGGCCGCCACUCCGGGCCCUAUAAAUGGGCGCAGUGAUGUUGCGGCUAGGCCUCUGAGGACCGGGACUUUAUAGC [Xeismaarbe] | 115 | 85.1 | 125 | 66.8 | 201
3 | GCCUAGCAGGGAAGGAGCGGCAUAGGCAUAGAUAAUAUGCAGUUAGUGAUGUUAACACUAUGCCAGGUAGGUCGCCCUGCUAGGC [KL-SSArg B8] | 201 | 95.4 | 192 | 120 | 125
4 | GUAUCGCUAGGAGGAUAUUUCAAUCUGACUCUUUGAGUUAGUACGGAGUGAUGUUCCGAUUUACGGAAAGAAGGCCUAGUGAUAC [FMN B 11] | 142 | 312 | 378 | 264 | 299
5 | GAACCAGAGGUUGCUGCGGGUUCCAGAGAUACCAGCCGUAUUGAAGGCCCUUGGCAGCUCGAGUGAUGUUCGAGCCGCCUCUGGC [Antius] | 118 | 96.8 | 120 | 103 | 103
6 | UACGUAGAGCGAGGAUAUCCUUCCCACGUCGAAGUACCGUGCUUGAUGGAGUGAUGUUCGAUCAGAGGAGAAGGUGCGAAACGUC [Flavin Switch Lower Fold Energy] | 725 | 618 | 724 | 622 | 524
7 | UAAAACGCUUGAAUAACAAGCGAAAAUUCGCGAGGACCGGUACGGCCGCCACUCGCUAACUGCGAGUGAUGUUCGAUAAUAAAAU [Mat - Mod of OpenEnded 3 - D4] | 149 | 70.1 | 158 | 188 | 95.5
8 | CGUAAGGAUUGACGACUGCAGAGCAAAAUAAAGGAUAUCGCAGCGUCGAGAAGGUUAUCGUGCGCCAGUGAUGUUGGCGGUAGUC [theeternabot_sameState_KL_FMN_A_22] | 84.1 | 135 | 108 | 181 | 87
9 | UAUUUAUUAACUGAUACCAGACUUAAUGAAUUGUAAAUUACUAGUGAUGUUAGUGAAUCUGUCCCUUGGCAGCAGUAUUUAUUAA [JR_Nu_ExcTheophyB_Sub028] | 111 | 169 | 128 | 170 | 85.1
10 | ACGUAUAUCAGAGGAUAUCGUAUUAAUAUUUUAUCUAUAUAUUAUAGCAGUGAUGUUGCAAUUAUUCGAGAAGGCUGAUUUACGA [JR_SSFMNB_Sub023] | 144 | 170 | 139 | 194 | 100
11 | UGAUAGGACAGAAGGAGCGGAAGUGAUGUUUCCAAAAGGGAAGGUCGACAAAGUCGACCCUUCCAGGUAGGUCGCUGUCCUAUCU [ArgBX 9 #Palindromic #SwitchBubble #StaticStem] | 75.9 | 72.5 | 73.9 | 86.1 | 68.7
12 | UGAUUGCCAGUGAUGUUGGCAGUGACUGAAGGAGCGCGUGAAAACGCAGGUAGGUCGCAGUUGAGUGCCAAUUGAUCGAAAGAUC [KL-XArg-A5] | 286 | 275 | 244 | 328 | 249
13 | GCAGACACGCAGUGAUGUUGCGAAACGGAAGGAGCGCGUGAAAACGCAGGUAGGUCGCCGAAACAUAAAUUAUAAUUUUGUUUGC [Arginine A K4 13] | 244 | 194 | 221 | 240 | 177
14 | GCCUGGGCACGAAGGAGCGCCGUGACAGGUUACUGCAUUGGGCAGUGAUGUUGCUCAAUCUGGCAGGUAGGUCGCGUGCCCAGGC | 106 | 114 | 110 | 120 | 113
15 | ACGAAGGAUGGAAGGAGCGCUCGUCAGUCCUGCGAGUGAUGUUCGUGGGUAAAUAUUCGCGAGCAGGUAGGUCGCCAUCUUGAAC [Veticeen] | 146 | 104 | 137 | 121 | 134
16 | UAAGCUCUGACGGCCGCCACUGCACGUGAUCCAGUAGUGGCUAACAUGAGUGAUGUUCAUGUAAGCAGGACCGGGUCAGAGCUAA [KL-XTryp-B13 #analogue] | 103 | 87.9 | 94.7 | 81.7 | 120

Row | Sequence | apparent KD of K4 kissing-loop reporter (input ligand: FMN 200 uM) [nM] | apparent KD of K4 kissing-loop reporter (input ligand: arginine 13.2 mM) [nM] | apparent KD of K4 kissing-loop reporter (input ligand: none) [nM] | apparent KD of K4 kissing-loop reporter [1] [nM] | apparent KD of K4 kissing-loop reporter [2] [nM]
17 | UUCGUAGUAGGAAACUAUUACGAAAAGGAAGGAGCGGCGAAGAAGCCAGGUAGGUCGCCUAUUGACAGUGAUGUUGUUAUAUAGA [#10] | 144 | 239 | 176 | 205 | 162
18 | AAUUUAUUAACUGAUACCAGACUUAAUAAAUUUUAAAUCACUAGUGAUGUUAGUGAAUAUGUCCCUUGGCAGCAGUAUUUAUUAA [JR_SSTheophyB_Sub023] | 132 | 134 | 125 | 121 | 115
19 | UUUGGUUUCUCGGCCGCCACUCGUUGGUUAUGGGCUUCAGGGAUAUAGUGAUGUUAUGUAUAGAAGAGGACCGGGAGAAGGUUUG [ExTryptoB.Dt] | 343 | 343 | 318 | 408 | 301
20 | UGCGCUGUGUCCUGAAAUGUCCUCCGGGAUACCAGAGUCUUUUUAUUCCCUUGGCAGCUUGAGUGAUGUUUGAUGCCGUUCUUGU [yvvymullin] | 668 | 481 | 713 | 576 | 515
21 | GAGUGGCAGACGGCCGCCACUCUUAGCAGCCAGCGGAGUGAUGUUCCGCCCGAGUGAUGUUCGGAGAGGACCGGGUUUGUUGUAA [Exclusion Tryptophan B GF 29] | 119 | 146 | 146 | 149 | 125
22 | CGUUUAUAGCAGGAUACCAGUACCCAUAAAGUACGUUAAUAGUAGAGUGAUGUUCUGAAGUACCCUUGGCAGCUUCCGGUAAGUG [#25 K4 Theophylline B Exclusion] | 163 | 342 | 239 | 298 | 134
23 | GUCCCGAGUGAUGUUCGGGUCGUUCGGGAAGGAGCGCCCGCAAGGGCAGGUAGGUCGCCCGGAUCCCUCAGGUAACUGAGGGACC [#2 Same State - Arginine A Attempt #26 (HarryS)] | 632 | 428 | 491 | 467 | 465
24 | UUCUGCAUCUCGGCCGCCACUCACUAGUGAUGUUAGUAAGGAGCGACUAGACAUGUCCCGUUGUUGAGGACCGGGAGAGGCUCUU [#14 K4 Tryptophan B Exclusion] | 156 | 164 | 164 | 191 | 170
25 | UUAGAGAUCUCAGGAUAUCAGUGAUGUUGGUGUAAAGAUCUGAGAUAGAAUUCUAUCUCAGAUCAAUGAGAAGGGAGAUCUCAUU [AK3.2 Exc FMN B] | 338 | 179 | 192 | 219 | 174
26 | AAAUUGUUUAGAGGAUAUUCUUUAUUCGACAUAACCUUCUAUAAGGUGCAGUGAUGUUGCAAUAUAGGAGAAGGUUGAGUGAUAA [Exclusion FMN B Gf 15] | 135 | 118 | 136 | 121 | 113
27 | GCAGUGAUGUUGCGGAUGUACAGUGGCGUGCGAGGACCGGUACGGCCGCCACUCGUACAGCACAAGCUAAUACAUCGAUAGGUGA [whbob_SS_Tryp_A_m2] | 566 | 287 | 357 | 380 | 430
28 | UGUGUUGUUGUGAUGUUUAGUGUUGUUGGGCAGGAUAUCGUAGAGGCGAGAAGGGCUUGUGUGCUGUAUGAGUGAUGUUUGUAGG [xrrxmullin] | 372 | 238 | 428 | 262 | 322
29 | CCCGGGUCGUCAGGAUAUGAGUGCAGUGAUGUUGCACGGGUCUUUGCAGGCCCUGGUGAGGCGUACUCAGAAGGGACGCCAGGUC [Atazazaed] | 250 | 124 | 145 | 130 | 133
30 | AAAUAAUGCAGUCACCCAGUGAUGUUGGAAGGAGCGUGCGAAAGCACAGGUAGGUCGCCAAUAAUGAUAAAGUUCAGUGGCUUUA [JR_Nu_ExcArginiA_Sub030] | 766 | 682 | 454 | 464 | 659
31 | AACGCAAGUUGUCUGGUAGACAUUUCAGAUACCAGACAUAGUGAUGUCCCUUGGCAGCUGAACAUCCAGUGAUGUUGGAUACGUU [Theo A SS t11a] | 444 | 394 | 513 | 507 | 400
32 | GUUUCUUGGAAACAAGGACCGCUAACCGAAGGAGCGAGUGAAAACUCAGGUAGGUCGCGGUAGCGGAGUGAUGUUCCGCGUUUAC [Excluson Arginine A GF 15] | 91.3 | 129 | 123 | 150 | 99.8
